What was measured:
mRobo3 FN1-3 = molecular target: T1, mRobo3 FN1-3 (mouse, biotin on the Avi-tag (BirA) for SPR); assay: SPR; biotinylated mRobo3 FN1-3 on a Biacore SA chip; mNELL2 EGF1-6 WT and mutants as analytes over the same channel; 20 s 10 mM EDTA pH 8, 150 mM NaCl between runs; 25 °C, 10 mM HEPES pH 7.2, 150 mM NaCl, 0.05% Tween-20, 0.1% BSA; equilibrium, 1:1 Langmuir; conditions: both partners purified
T1 construct: also called Robo3FN1-3 (Polyhedrin, mouse); source: High Five cells (baculovirus), purified (Ni-NTA, SEC); biotinylated with BirA for SPR; not shown: His6, C-terminal, kept

[1] = molecular target: T2, hRobo3 FN1-3, biotinylated (wild type) (human, UniProt Q96MS0 549-870, biotin on the Avi-tag (BirA)); assay: SPR; biotinylated hRobo3 FN1-3 on an SA chip, Biacore 3000; hNELL1 EGF1-3 or hNELL2 EGF1-3 as analyte; equilibrium isotherms; conditions: both partners purified
T2 construct: human Robo3, FN domains 1-3, P549-L870; also called WT hRobo3 FN; Robo3FN1-3 WT; source: High Five cells (baculovirus), purified (Ni-NTA, SEC), biotinylated with BirA
T2 sequence (looked up): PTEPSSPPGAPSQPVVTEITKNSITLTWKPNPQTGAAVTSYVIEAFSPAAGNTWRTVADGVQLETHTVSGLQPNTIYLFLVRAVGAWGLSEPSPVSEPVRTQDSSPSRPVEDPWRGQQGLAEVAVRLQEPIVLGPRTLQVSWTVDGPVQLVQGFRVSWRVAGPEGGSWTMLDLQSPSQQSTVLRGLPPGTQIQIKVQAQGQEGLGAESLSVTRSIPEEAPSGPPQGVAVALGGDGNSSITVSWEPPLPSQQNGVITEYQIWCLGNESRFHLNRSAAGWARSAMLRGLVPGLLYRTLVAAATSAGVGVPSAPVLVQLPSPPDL

[2] = molecular target: T2, hRobo3 FN1-3, biotinylated (wild type); assay: SPR; as a6 but with additional 10 mM EDTA in all buffers; conditions: both partners purified
[3] = molecular target: T3, hRobo3 FN1-3 displayed on S2 cells (human, UniProt Q96MS0 549-870); assay: flow cytometry on cells; biotinylated ligand at various concentrations, 30 min at 4 °C in PBS + 0.1% BSA, on Drosophila S2 cells displaying the partner (C-terminal FLAG, rat Neurexin-1 transmembrane helix); Cy5-streptavidin; gated on anti-FLAG positive cells; MFI fit to a single-site model; apparent KD; conditions: one partner purified
T3 construct: human Robo3, FN domains 1-3, P549-L870; also called Robo3FN1-3 WT (Actin 5C, C-terminal FLAG); source: Drosophila S2 cells, transiently transfected, on the cell surface; not shown: FLAG, C-terminal, kept; transmembrane helix of rat Neurexin-1, C-terminal, kept
T3 sequence (looked up): T2 sequence (looked up)

[4] = molecular target: the molecule itself; assay: SEC-SAXS; Superose 6 Increase 10/300 in HBS at APS BioCAT beamline 18; molecular weight from the scattering
[5] = molecular target: the molecule itself; assay: SEC-MALS; Wyatt HELEOS II coupled to an AKTA FPLC, Superose Increase 6 10/300, HBS; Zimm model
[6] = molecular target: the molecule itself; assay: AUC; sedimentation velocity, concentration series (mRobo3 0.6-20 µM at 200,000 g; mRobo1 0.9-9.8 µM at 140,000 g), 20 °C, c(s) analysis
[7] = molecular target: T2, hRobo3 FN1-3, biotinylated (wild type); assay: SPR; biotinylated hRobo3 FN1-3 on an NLC/neutravidin chip, ProteOn XPR36; hNELL2 EGF1-6 as analyte; 25 °C, 10 mM HEPES pH 7.2, 150 mM NaCl, 0.05% Tween-20, 0.1% BSA; equilibrium responses, 1:1 Langmuir; conditions: both partners purified

B1: mNELL2 EGF1-6 D477A/Y478A (domain or fragment)
chain: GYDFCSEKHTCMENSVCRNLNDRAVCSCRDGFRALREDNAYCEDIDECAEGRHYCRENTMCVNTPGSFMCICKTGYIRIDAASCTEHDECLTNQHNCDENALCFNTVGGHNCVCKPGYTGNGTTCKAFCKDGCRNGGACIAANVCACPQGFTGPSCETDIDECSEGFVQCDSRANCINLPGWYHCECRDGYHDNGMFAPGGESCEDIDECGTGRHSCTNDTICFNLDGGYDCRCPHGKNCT
Q: B1 was tested. Which Kd (mRobo3 FN1-3) did it give?
A: The Kd was ≥ 100000 nM.

B2: hNELL2 EGF1-3 (domain or fragment, human, UniProt Q99435 397-523, looked up)
chain: GYDFCSERHNCMENSICRNLNDRAVCSCRDGFRALREDNAYCEDIDECAEGRHYCRENTMCVNTPGSFMCICKTGYIRIDDYSCTEHDECITNQHNCDENALCFNTVGGHNCVCKPGYTGNGTTCKA
notes: human NELL2, EGF domains 1-3, G397-A523; also called NELL2EGF1-3 (Polyhedrin, human); source: High Five cells (baculovirus), purified (Ni-NTA, SEC)
Q: With B2 as the binder, how does the Kd [1] read?
A: Its Kd is 250 nM.

Q: And the Kd [2]?
A: The Kd was 790 nM.

B3: hNELL2 EGF1-6, biotinylated (wild type) (domain or fragment)
chain: not shown
modifications: biotin on the Avi-tag (BirA)
notes: human NELL2, EGF domains 1-6, G397-T637; also called WT hNELL2 EGF; NELL2EGF1-6 WT; source: High Five cells (baculovirus), purified (Ni-NTA, SEC), biotinylated with BirA
Q: How did the Kd [3] turn out when B3 was run?
A: Its Kd is 770 nM.

B4: hNELL2 EGF1-6 R448A/Y450A, biotinylated (domain or fragment)
chain: not shown
modifications: biotin on the Avi-tag (BirA)
notes: human NELL2, EGF domains 1-6, G397-T637; source: High Five cells (baculovirus), purified, biotinylated with BirA (general methods)
Q: How did the Kd [3] turn out when B4 was run?
A: Its Kd is 9000 nM.

B5: hNELL2 EGF1-6 D477A/Y478A, biotinylated (domain or fragment)
chain: not shown
modifications: biotin on the Avi-tag (BirA)
notes: as for B4
Q: Which Kd [3] does the source give for B5 here?
A: The Kd was ≥ 100000 nM.

B6: hNELL2 EGF1-6 D476A, biotinylated (domain or fragment)
chain: not shown
modifications: biotin on the Avi-tag (BirA)
notes: as for B4
Q: With B6 as the binder, how does the Kd [3] read?
A: The Kd was ~50000 nM.

B7: hNELL2 EGF1-6 L498A/F500A, biotinylated (domain or fragment)
chain: not shown
modifications: biotin on the Avi-tag (BirA)
notes: as for B4
Q: Which Kd [3] does the source give for B7 here?
A: Its Kd is ≥ 100000 nM.

B8: hNELL2 EGF1-6 R452A, biotinylated (domain or fragment)
chain: not shown
modifications: biotin on the Avi-tag (BirA)
notes: as for B4
Q: Which Kd [3] does the source give for B8 here?
A: The Kd was 1100 nM.

B9: hNELL2 EGF1-6 V509A, biotinylated (domain or fragment)
chain: not shown
modifications: biotin on the Avi-tag (BirA)
notes: as for B4
Q: For B9, which Kd [3] is on record?
A: Its Kd is 1500 nM.

B10: hNELL2 (full length) (ligand, human, UniProt Q99435 22-816, looked up)
chain: LGVDPSLQIDVLTELELGESTTGVRQVPGLHNGTKAFLFQDTPRSIKASTATAEQFFQKLRNKHEFTILVTLKQTHLNSGVILSIHHLDHRYLELESSGHRNEVRLHYRSGSHRPHTEVFPYILADDKWHKLSLAISASHLILHIDCNKIYERVVEKPSTDLPLGTTFWLGQRNNAHGYFKGIMQDVQLLVMPQGFIAQCPDLNRTCPTCNDFHGLVQKIMELQDILAKTSAKLSRAEQRMNRLDQCYCERTCTMKGTTYREFESWIDGCKNCTCLNGTIQCETLICPNPDCPLKSALAYVDGKCCKECKSICQFQGRTYFEGERNTVYSSSGVCVLYECKDQTMKLVESSGCPALDCPESHQITLSHSCCKVCKGYDFCSERHNCMENSICRNLNDRAVCSCRDGFRALREDNAYCEDIDECAEGRHYCRENTMCVNTPGSFMCICKTGYIRIDDYSCTEHDECITNQHNCDENALCFNTVGGHNCVCKPGYTGNGTTCKAFCKDGCRNGGACIAANVCACPQGFTGPSCETDIDECSDGFVQCDSRANCINLPGWYHCECRDGYHDNGMFSPSGESCEDIDECGTGRHSCANDTICFNLDGGYDCRCPHGKNCTGDCIHDGKVKHNGQIWVLENDRCSVCSCQNGFVMCRRMVCDCENPTVDLFCCPECDPRLSSQCLHQNGETLYNSGDTWVQNCQQCRCLQGEVDCWPLPCPDVECEFSILPENECCPRCVTDPCQADTIRNDITKTCLDEMNVVRFTGSSWIKHGTECTLCQCKNGHICCSVDPQCLQEL
notes: human NELL2, L22-L816; trimer by SAXS; also called NELL2FL (Polyhedrin, human); source: High Five cells (baculovirus), purified (Ni-NTA, SEC)
Q: B10 was tested. Which “stoichiometry N” value [4] did it give?
A: Its value is 3.

B11: full-length human NELL2 (ligand, UniProt Q99435 22-816, looked up)
chain: B10 chain
notes: NELL2, human; called full-length; the methods say that mature domains were cloned into pAcGP67A; Trimer by MALS and SAXS; also called hNELL2; full-length hNELL2; source: High Five cells (baculovirus), secreted, purified (Ni-NTA, SEC)
Q: With B11 as the binder, how does the “stoichiometry N” value [5] read?
A: Its value is 3.

B12: mNELL2 EGF1-6 L498A/F500A (domain or fragment)
chain: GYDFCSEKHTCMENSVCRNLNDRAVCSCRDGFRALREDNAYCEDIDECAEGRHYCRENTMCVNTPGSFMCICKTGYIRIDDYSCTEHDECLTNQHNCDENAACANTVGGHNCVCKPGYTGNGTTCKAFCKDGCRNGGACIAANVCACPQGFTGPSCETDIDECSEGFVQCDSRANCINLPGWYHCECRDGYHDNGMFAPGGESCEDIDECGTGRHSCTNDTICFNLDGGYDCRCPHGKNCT
Q: How did the Kd (mRobo3 FN1-3) turn out when B12 was run?
A: Its Kd is ≥ 100000 nM.

B13: hNELL1 EGF1-3 (domain or fragment, human, UniProt Q92832 390-517, looked up)
chain: RGHNFCAEGPKCGENSECKNWNTKATCECKSGYISVQGDSAYCEDIDECAAKMHYCHANTVCVNLPGLYRCDCVPGYIRVDDFSCTEHDECGSGQHNCDENAICTNTVQGHSCTCKPGYVGNGTICRA
notes: human NELL1, EGF domains 1-3, R390-A517; also called NELL1EGF1-3 (Polyhedrin, human); source: High Five cells (baculovirus), purified (Ni-NTA, SEC)
Q: With B13 as the binder, how does the Kd [1] read?
A: Its Kd is 460 nM.

Q: And the Kd [2]?
A: Its Kd is 2710 nM.

B14: mRobo1 ectodomain (domain or fragment, mouse, UniProt O89026 30-840, looked up)
chain: RIVEHPSDLIVSKGEPATLNCKAEGRPTPTIEWYKGGERVETDKDDPRSHRMLLPSGSLFFLRIVHGRKSRPDEGVYICVARNYLGEAVSHNASLEVAILRDDFRQNPSDVMVAVGEPAVMECQPPRGHPEPTISWKKDGSPLDDKDERITIRGGKLMITYTRKSDAGKYVCVGTNMVGERESEVAELTVLERPSFVKRPSNLAVTVDDSAEFKCEARGDPVPTVRWRKDDGELPKSRYEIRDDHTLKIRKVTAGDMGSYTCVAENMVGKAEASATLTVQEPPHFVVKPRDQVVALGRTVTFQCEATGNPQPAIFWRREGSQNLLFSYQPPQSSSRFSVSQTGDLTITNVQRSDVGYYICQTLNVAGSIITKAYLEVTDVIADRPPPVIRQGPVNQTVAVDGTLILSCVATGSPAPTILWRKDGVLVSTQDSRIKQLESGVLQIRYAKLGDTGRYTCTASTPSGEATWSAYIEVQEFGVPVQPPRPTDPNLIPSAPSKPEVTDVSKNTVTLSWQPNLNSGATPTSYIIEAFSHASGSSWQTAAENVKTETFAIKGLKPNAIYLFLVRAANAYGISDPSQISDPVKTQDVPPTSQGVDHKQVQRELGNVVLHLHNPTILSSSSVEVHWTVDQQSQYIQGYKILYRPSGASHGESEWLVFEVRTPTKNSVVIPDLRKGVNYEIKARPFFNEFQGADSEIKFAKTLEEAPSAPPRSVTVSKNDGNGTAILVTWQPPPEDTQNGMVQEYKVWCLGNETKYHINKTVDGSTFSVVIPSLVPGIRYSVEVAASTGAGPGVKSEPQFIQLDSHGNPVS
notes: mouse Robo1, extracellular domain, R30-S840; C-terminal Avi and His; also called mRobo1 ECD; Robo1ECD; source: High Five cells (baculovirus), purified (Ni-NTA, SEC)
Q: B14 was tested. Which “stoichiometry N” value [6] did it give?
A: Its value is 2.

B15: hNELL2 EGF1-6 (His-tagged) (domain or fragment)
chain: not shown
notes: human NELL2, EGF domains 1-6, G397-T637; also called NELL2EGF1-6 (Polyhedrin, human); source: High Five cells (baculovirus), purified (Ni-NTA, SEC)
Q: With B15 as the binder, how does the Kd [7] read?
A: The Kd was 579 nM.

B16: mouse NELL1 (ligand, UniProt Q2VWQ2 22-810, looked up)
chain: FGMDPDLQMDIITELDLVNTTLGVTQVAGLHNASKAFLFQDVQREIHSAPHVSEKLIQLFRNKSEFTFLATVQQKPSTSGVILSIRELEHSYFELESSGPREEIRYHYIHGGKPRTEALPYRMADGQWHKVALSVSASHLLLHVDCNRIYERVIDPPETNLPPGSNLWLGQRNQKHGFFKGIIQDGKIIFMPNGFITQCPNLNRTCPTCSDFLSLVQGIMDLQELLAKMTAKLNYAETRLGQLENCHCEKTCQVSGLLYRDQDSWVDGDNCRNCTCKSGAVECRRMSCPPLNCSPDSLPVHISGQCCKVCRPKCIYGGKVLAEGQRILTKTCRECRGGVLVKITEACPPLNCSEKDHILPENQCCRVCRGHNFCAEAPKCGENSECKNWNTKATCECKNGYISVQGNSAYCEDIDECAAKMHYCHANTVCVNLPGLYRCDCIPGYIRVDDFSCTEHDDCGSGQHNCDKNAICTNTVQGHSCTCQPGYVGNGTVCKAFCEEGCRYGGTCVAPNKCVCPSGFTGSHCEKDIDECAEGFVECHNHSRCVNLPGWYHCECRSGFHDDGTYSLSGESCIDIDECALRTHTCWNDSACINLAGGFDCLCPSGPSCSGDCPHEGGLKHNGQVWILREDRCSVCSCKDGKIFCRRTACDCQNPNVDLFCCPECDTRVTSQCLDQSGQKLYRSGDNWTHSCQQCRCLEGEADCWPLACPSLSCEYTAIFEGECCPRCVSDPCLADNIAYDIRKTCLDSSGISRLSGAVWTMAGSPCTTCQCKNGRVCCSVDLVCLENN
notes: NELL1, mouse; the methods say that mature domains were cloned into pAcGP67A; Trimer by MALS; also called mNELL1; source: High Five cells (baculovirus), secreted, purified (Ni-NTA, SEC)
Q: B16 was tested. Which “stoichiometry N” value [5] did it give?
A: Its value is 3.

Reference: paper PMC7083938, “NELL2-Robo3 complex structure reveals mechanisms of receptor activation for axon guidance” (Nature Communications, 2020)
